Target: c-mpl receptor (TPO receptor), expressed from c-mpl-pcDNA3.1 in NIH-3T3 cells
Test: cell-based or functional assay

recombinant human TPO (rhTPO) (from UniProt P40225 22-353) (ligand)
The relative fluorescence ratio (firefly/Renilla luciferase, c-fos-pGL3 reporter, NIH-3T3 transfected with c-mpl-pcDNA3.1): 1.65
